Assay results as given in US20190300616A1 (UNIVERSITY OF CHICAGO, published 2019).

T1: recombinant human IL13Rα1hFc chimera (human, UniProt P78552 27-343, limits assumed)
T1 construct: Bought from R&D Systems; also called rhIL13Rα1; hrIL13Rα1; not shown: human Fc (hFc) of the purchased chimera
T1 sequence (looked up): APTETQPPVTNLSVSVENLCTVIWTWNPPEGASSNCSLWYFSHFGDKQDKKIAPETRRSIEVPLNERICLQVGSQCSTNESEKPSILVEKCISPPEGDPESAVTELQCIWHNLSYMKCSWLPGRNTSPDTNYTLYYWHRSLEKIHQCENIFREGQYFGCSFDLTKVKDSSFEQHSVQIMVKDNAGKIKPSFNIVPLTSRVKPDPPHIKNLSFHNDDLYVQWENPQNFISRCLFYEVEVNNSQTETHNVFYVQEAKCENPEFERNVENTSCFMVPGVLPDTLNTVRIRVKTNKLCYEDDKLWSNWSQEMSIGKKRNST

T2: recombinant mouse IL13Rα2hFc chimera (mouse, UniProt O88786 22-334, limits assumed)
T2 construct: Bought from R&D Systems; also called mouse rIL13Rα2; mouse recombinant IL13Rα2; not shown: human Fc (hFc) of the purchased chimera
T2 sequence (looked up): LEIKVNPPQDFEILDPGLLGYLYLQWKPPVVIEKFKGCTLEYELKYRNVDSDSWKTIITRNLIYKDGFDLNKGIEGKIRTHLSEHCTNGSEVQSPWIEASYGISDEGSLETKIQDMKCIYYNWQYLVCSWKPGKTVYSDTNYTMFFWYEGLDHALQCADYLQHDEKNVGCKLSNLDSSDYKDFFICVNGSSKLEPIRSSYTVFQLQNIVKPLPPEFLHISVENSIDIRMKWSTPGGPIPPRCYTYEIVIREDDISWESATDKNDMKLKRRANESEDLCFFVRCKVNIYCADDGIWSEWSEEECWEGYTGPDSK

B1: recombinant human IL13Rα2hFc chimera (Fc fusion, UniProt Q14627 27-343, looked up)
chain: DTEIKVNPPQDFEIVDPGYLGYLYLQWQPPLSLDHFKECTVEYELKYRNIGSETWKTIITKNLHYKDGFDLNKGIEAKIHTLLPWQCTNGSEVQSSWAETTYWISPQGIPETKVQDMDCVYYNWQYLLCSWKPGIGVLLDTNYNLFYWYEGLDHALQCVDYIKADGQNIGCRFPYLEASDYKDFYICVNGSSENKPIRSSYFTFQLQNIVKPLPPVYLTFTRESSCEIKLKWSIPLGPIPARCFDYEIEIREDDTTLVTATVENETYTLKTTNETRQLCFVVRSKVNIYCSDDGIWSEWSDKQCWEGEDLSKKTLLR
notes: Bought from R&D Systems; also called rhIL13Rα2hFc; rhIL13Rα2; not shown: human Fc (hFc) of the purchased chimera
B2: IL13Rα2 (clone 47) mAb (antibody, V domains shown)
VH: QVQLQQPGAELVRPGASVKLSCKASGYTFSNYLMNWVKQRPEQDLDWIGRIDPYDGDIDYNQNFKDKAILTVDKSSSTAYMQLSSLTSEDSAVYYCARGYGTAYGVDYWGQGTSVTVSS
VL: not shown
notes: Mouse hybridoma antibody; mIgG1 was used as isotype control; also called mAb47; m47

What was measured:
CD28.OX40.z = target: T3, CD28.OX40.z; experiment: flow cytometry of transduced T cells stained with IL13Rα2Fc and secondary antibody, axis labelled CAR
T3 construct: also called M47 IL13Ra2 - SH - TM - CD28 - OX40 - ζ-chain CAR on T cells

*41BB.z = target: T4, *41BB.z; experiment: as above
T4 construct: also called M47 IL13Ra2 - SH - TM* (CD8a) - 41BB - ζ-chain CAR on T cells

[1] = target: T1, recombinant human IL13Rα1hFc chimera; experiment: plate-bound ELISA on IL13Rα1hFc
[2] = target: T2, recombinant mouse IL13Rα2hFc chimera; experiment: plate-bound ELISA on mouse rIL13Rα2hFc

Binder	binding result (CD28.OX40.z)	binding result (*41BB.z)	binding result [1]	binding result [2]
B1	binds	binds		
B2			no binding (tested: 4 µg/ml)	no binding
